The target of this series is Rae1;Nup98 GLEBS (human;human, UniProt P78406;P52948-3 1-368;157-213, |). The experiment in a line: ITC. The conditions noted are these: protein: recombinant;recombinant; tags: His tag on the complex (HisTrap); copies: 1;1.
Sequence of Rae1;Nup98 GLEBS (P78406 whole entry, chain 1 of 2): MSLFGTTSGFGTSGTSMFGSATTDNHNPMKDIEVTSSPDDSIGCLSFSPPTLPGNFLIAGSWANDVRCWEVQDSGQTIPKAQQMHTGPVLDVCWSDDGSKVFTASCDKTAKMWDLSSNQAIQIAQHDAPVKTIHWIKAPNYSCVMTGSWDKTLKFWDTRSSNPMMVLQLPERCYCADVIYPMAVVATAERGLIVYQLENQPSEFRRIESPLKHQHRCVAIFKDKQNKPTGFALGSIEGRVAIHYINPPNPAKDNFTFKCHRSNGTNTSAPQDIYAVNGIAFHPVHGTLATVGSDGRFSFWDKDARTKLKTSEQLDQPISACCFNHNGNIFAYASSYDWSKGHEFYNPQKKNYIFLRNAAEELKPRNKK
Sequence of Rae1;Nup98 GLEBS (P52948 157-213, chain 2 of 2): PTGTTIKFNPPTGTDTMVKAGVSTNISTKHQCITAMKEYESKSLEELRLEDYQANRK

Turning to UUUUUUUUUUUUUU (ssRNA) [14-mer poly(U) ssRNA], the binding result was “binds”.

These data come from paper PMC8790125, “Molecular Mechanism of SARS-CoVs Orf6 Targeting the Rae1–Nup98 Complex to Compete With mRNA Nuclear Export”.
